Laboratory results reported in patent publication US20260263520A1 (OSLO UNIVERSITETSSYKEHUS HF, published 2026).

Target: antigen derived from p95HER2 (protein sequence …)
Assay: indirect ELISA, antigen coated at 2.5 ug/mL, antibody in 3-fold dilutions from 3.0 ug/mL, absorbance at 450 nm
Procedure: Antibody binding was determined by indirect ELISA. A microtitre plate was coated with 50 μL antigen (protein sequence: […]) (SEQ ID NO: 36) at 2.5 μg/mL for 1 hour with shaking at 300 rpm then blocked with 200 μL 1% casein in PBS for 16 hours at 4° C. The plate was washed twice with PBS containing 0.05% Tween-20. In a separate offline microplate, antibody test samples were prepared in duplicate in a 3-fold serial dilution starting at 3.0 ug/mL. 50 μL of each test sample was transferred to the assay plate and incubated for 1 hour with shaking at 300 rpm. The plate was washed four times with PBS containing 0.05% Tween-20. 50 μL of horse radish peroxidase (HRP) labelled anti-human IgG antibody (catalogue number A8792, Sigma) at a dilution of 1:4000 was added to each well and incubated for 1 hour with shaking at 300 rpm. The plate was washed four times with PBS containing 0.05% Tween-20 and twice with water. 100 μL Tetramethylbenzidine (TMB) substrate (catalogue number 10076433, Fisher) was added and incubated for 10 minutes. The reaction was stopped by addition of 50 μL IM HCl and absorbance was measured at 450 nm using a Byonoy plate reader.

Row | binding result | Binder
1 | binds | parental Oslo-2 monoclonal antibody (antibody, V domains shown, also called Oslo-2 antibody; Oslo-2 parental antibody) VH: EVQILETGGGLVKPGGSLRLSCATSGFNFNDYFMNWVRQAPGKGLEWIAQIRNKNYNYATYFAESLEGRFTISRDDSKSSVYLQVNSLRAEDTALYYCTELRYDYWGQGVMVTVSS VL: DIVMTQSPFSLAVSEGEMVTINCKSSQSLLSSGNQKNNLAWYQQKPGQSPKLLIYYASTRQSGVPDRFIGSGSGTDFTLTISDVQAEDLADYYCLQHYSSPYTFGAGTKLELK
2 | binds | Oslo-2 mAb variant Mutant 4 (L:S31W/L:H107W) (antibody, V domains shown, Only variable domains are tied to the molecule; also called Variant 4; variant 4) VH: EVQILETGGGLVKPGGSLRLSCATSGFNFNDYFMNWVRQAPGKGLEWIAQIRNKNYNYATYFAESLEGRFTISRDDSKSSVYLQVNSLRAEDTALYYCTELRYDYWGQGVMVTVSS VL: DIVMTQSPFSLAVSEGEMVTINCKSSQSLLWSGNQKNNLAWYQQKPGQSPKLLIYYASTRQSGVPDRFIGSGSGTDFTLTISDVQAEDLADYYCLQWYSSPYTFGAGTKLEIK
3 | binds | Oslo-2 mAb variant Mutant 5 (L:S31M) (antibody, V domains shown, Only variable domains are tied to the molecule; also called Variant 5; variant 5) VH: EVQILETGGGLVKPGGSLRLSCATSGFNFNDYFMNWVRQAPGKGLEWIAQIRNKNYNYATYFAESLEGRFTISRDDSKSSVYLQVNSLRAEDTALYYCTELRYDYWGQGVMVTVSS VL: DIVMTQSPFSLAVSEGEMVTINCKSSQSLLMSGNQKNNLAWYQQKPGQSPKLLIYYASTRQSGVPDRFIGSGSGTDFTLTISDVQAEDLADYYCLQHYSSPYTFGAGTKLEIK
